Laboratory results published in publication PMC3101628 (Nature structural & molecular biology, 2011).
Several values for one entry are separate records, joined by “and”; a condition that tells them apart may be missing. Identical values can stand only once. Like-named read-outs stand apart in the source and are kept apart here.

Key:
[1] = target: the molecule itself
[2] = target: the molecule itself; assay: SEC
[3] = target: the molecule itself; assay: SEC; remark: listed apart in the source
[4] = target: the molecule itself; assay: SEC; remark: listed apart in the source
[5] = target: the molecule itself; assay: SEC; remark: listed apart in the source
[6] = target: the molecule itself; assay: SEC; remark: listed apart in the source
[7] = target: the molecule itself; assay: SEC; remark: listed apart in the source
[8] = target: the molecule itself; assay: SEC-MALS
[9] = target: the molecule itself; assay: SEC; remark: listed apart in the source

B1: ScRR1 D182R (enzyme, S. cerevisiae)
chain: MYVYKRDGRKEPVQFDKITARISRLCYGLDPKHIDAVKVTQRIISGVYEGVTTIELDNLAAETCAYMTTVHPDYATLAARIAISNLHKQTTKQFSKVVEDLYRYVNAATGKPAPMISDDVYNIVMENKDKLNSAIVYDRDFQYSYFGFKTLERSYLLRINGQVAERPQHLIMRVALGIHGRRIEAALETYNLMSLKYFTHASPTLFNAGTPKPQMSSCFLVAMKEDSIEGIYDTLKECALISKTAGGIGLHIHNIRSTGSYIAGTNGTSNGLIPMIRVFNNTARYVDQGGNKRPGAFALYLEPWHADIFDFIDIRKNHGKEEIRARDLFPALWIPDLFMKRVEENGTWTLFSPTSAPGLSDCYGDEFEALYTRYEKEGRGKTIKAQKLWYSILEAQTETGTPFVVYKDACNRKSNQKNLGVIKSSNLCCEIVEYSAPDETAVCNLASVALPAFIETSEDGKTSTYNFKKLHEIAKVVTRNLNRVIDRNYYPVEEARKSNMRHRPIALGVQGLADTFMLLRLPFDSEEARLLNIQIFETIYHASMEASCELAQKDGPYETFQGSPASQGILQFDMWDQKPYGMWDWDTLRKDIMKHGVRNSLTMAPMPTASTSQILGYNECFEPVTSNMYSRRVLSGEFQVVNPYLLRDLVDLGIWDEGMKQYLITQNGSIQGLPNVPQELKDLYKTVWEISQKTIINMAADRSVYIDQSHSLNLFLRAPTMGKLTSMHFYGWKKGLKTGMYYLRTQAASAAIQFTIDQKIADQATENVADISNLKRPSYMPSSASYAASDFVPAAVTANATIPSLDSSSEASREASPAPTGSHSLTKGMAELNVQESKVEVPEVPAPTKNEEKAAPIVDDEETEFDIYNSKVIACAIDNPEACEMCSG
stoichiometry N [1]: 6

B2: S. cerevisiae ribonucleotide reductase RR1 (ScRR1), wild type (enzyme)
chain: MYVYKRDGRKEPVQFDKITARISRLCYGLDPKHIDAVKVTQRIISGVYEGVTTIELDNLAAETCAYMTTVHPDYATLAARIAISNLHKQTTKQFSKVVEDLYRYVNAATGKPAPMISDDVYNIVMENKDKLNSAIVYDRDFQYSYFGFKTLERSYLLRINGQVAERPQHLIMRVALGIHGRDIEAALETYNLMSLKYFTHASPTLFNAGTPKPQMSSCFLVAMKEDSIEGIYDTLKECALISKTAGGIGLHIHNIRSTGSYIAGTNGTSNGLIPMIRVFNNTARYVDQGGNKRPGAFALYLEPWHADIFDFIDIRKNHGKEEIRARDLFPALWIPDLFMKRVEENGTWTLFSPTSAPGLSDCYGDEFEALYTRYEKEGRGKTIKAQKLWYSILEAQTETGTPFVVYKDACNRKSNQKNLGVIKSSNLCCEIVEYSAPDETAVCNLASVALPAFIETSEDGKTSTYNFKKLHEIAKVVTRNLNRVIDRNYYPVEEARKSNMRHRPIALGVQGLADTFMLLRLPFDSEEARLLNIQIFETIYHASMEASCELAQKDGPYETFQGSPASQGILQFDMWDQKPYGMWDWDTLRKDIMKHGVRNSLTMAPMPTASTSQILGYNECFEPVTSNMYSRRVLSGEFQVVNPYLLRDLVDLGIWDEGMKQYLITQNGSIQGLPNVPQELKDLYKTVWEISQKTIINMAADRSVYIDQSHSLNLFLRAPTMGKLTSMHFYGWKKGLKTGMYYLRTQAASAAIQFTIDQKIADQATENVADISNLKRPSYMPSSASYAASDFVPAAVTANATIPSLDSSSEASREASPAPTGSHSLTKGMAELNVQESKVEVPEVPAPTKNEEKAAPIVDDEETEFDIYNSKVIACAIDNPEACEMCSG
stoichiometry N [2]: 6

B3: human ribonucleotide reductase RR1 (hRRM1), wild type (enzyme, UniProt P23921 1-792, looked up)
chain: MHVIKRDGRQERVMFDKITSRIQKLCYGLNMDFVDPAQITMKVIQGLYSGVTTVELDTLAAETAATLTTKHPDYAILAARIAVSNLHKETKKVFSDVMEDLYNYINPHNGKHSPMVAKSTLDIVLANKDRLNSAIIYDRDFSYNYFGFKTLERSYLLKINGKVAERPQHMLMRVSVGIHKEDIDAAIETYNLLSERWFTHASPTLFNAGTNRPQLSSCFLLSMKDDSIEGIYDTLKQCALISKSAGGIGVAVSCIRATGSYIAGTNGNSNGLVPMLRVYNNTARYVDQGGNKRPGAFAIYLEPWHLDIFEFLDLKKNTGKEEQRARDLFFALWIPDLFMKRVETNQDWSLMCPNECPGLDEVWGEEFEKLYASYEKQGRVRKVVKAQQLWYAIIESQTETGTPYMLYKDSCNRKSNQQNLGTIKCSNLCTEIVEYTSKDEVAVCNLASLALNMYVTSEHTYDFKKLAEVTKVVVRNLNKIIDINYYPVPEACLSNKRHRPIGIGVQGLADAFILMRYPFESAEAQLLNKQIFETIYYGALEASCDLAKEQGPYETYEGSPVSKGILQYDMWNVTPTDLWDWKVLKEKIAKYGIRNSLLIAPMPTASTAQILGNNESIEPYTSNIYTRRVLSGEFQIVNPHLLKDLTERGLWHEEMKNQIIACNGSIQSIPEIPDDLKQLYKTVWEISQKTVLKMAAERGAFIDQSQSLNIHIAEPNYGKLTSMHFYGWKQGLKTGMYYLRTRPAANPIQFTLNKEKLKDKEKVSKEEEEKERNTAAMVCSLENRDECLMCGS
stoichiometry N [3]: 2 | stoichiometry N [4]: 6

B4: hRRM1 D57N (enzyme, human, UniProt P23921 1-792, looked up)
chain: MHVIKRDGRQERVMFDKITSRIQKLCYGLNMDFVDPAQITMKVIQGLYSGVTTVELNTLAAETAATLTTKHPDYAILAARIAVSNLHKETKKVFSDVMEDLYNYINPHNGKHSPMVAKSTLDIVLANKDRLNSAIIYDRDFSYNYFGFKTLERSYLLKINGKVAERPQHMLMRVSVGIHKEDIDAAIETYNLLSERWFTHASPTLFNAGTNRPQLSSCFLLSMKDDSIEGIYDTLKQCALISKSAGGIGVAVSCIRATGSYIAGTNGNSNGLVPMLRVYNNTARYVDQGGNKRPGAFAIYLEPWHLDIFEFLDLKKNTGKEEQRARDLFFALWIPDLFMKRVETNQDWSLMCPNECPGLDEVWGEEFEKLYASYEKQGRVRKVVKAQQLWYAIIESQTETGTPYMLYKDSCNRKSNQQNLGTIKCSNLCTEIVEYTSKDEVAVCNLASLALNMYVTSEHTYDFKKLAEVTKVVVRNLNKIIDINYYPVPEACLSNKRHRPIGIGVQGLADAFILMRYPFESAEAQLLNKQIFETIYYGALEASCDLAKEQGPYETYEGSPVSKGILQYDMWNVTPTDLWDWKVLKEKIAKYGIRNSLLIAPMPTASTAQILGNNESIEPYTSNIYTRRVLSGEFQIVNPHLLKDLTERGLWHEEMKNQIIACNGSIQSIPEIPDDLKQLYKTVWEISQKTVLKMAAERGAFIDQSQSLNIHIAEPNYGKLTSMHFYGWKQGLKTGMYYLRTRPAANPIQFTLNKEKLKDKEKVSKEEEEKERNTAAMVCSLENRDECLMCGS
stoichiometry N [5]: 6 | stoichiometry N [6]: 2

B5: hRRM1 D16R (enzyme, human, UniProt P23921 1-792, looked up)
chain: MHVIKRDGRQERVMFRKITSRIQKLCYGLNMDFVDPAQITMKVIQGLYSGVTTVELDTLAAETAATLTTKHPDYAILAARIAVSNLHKETKKVFSDVMEDLYNYINPHNGKHSPMVAKSTLDIVLANKDRLNSAIIYDRDFSYNYFGFKTLERSYLLKINGKVAERPQHMLMRVSVGIHKEDIDAAIETYNLLSERWFTHASPTLFNAGTNRPQLSSCFLLSMKDDSIEGIYDTLKQCALISKSAGGIGVAVSCIRATGSYIAGTNGNSNGLVPMLRVYNNTARYVDQGGNKRPGAFAIYLEPWHLDIFEFLDLKKNTGKEEQRARDLFFALWIPDLFMKRVETNQDWSLMCPNECPGLDEVWGEEFEKLYASYEKQGRVRKVVKAQQLWYAIIESQTETGTPYMLYKDSCNRKSNQQNLGTIKCSNLCTEIVEYTSKDEVAVCNLASLALNMYVTSEHTYDFKKLAEVTKVVVRNLNKIIDINYYPVPEACLSNKRHRPIGIGVQGLADAFILMRYPFESAEAQLLNKQIFETIYYGALEASCDLAKEQGPYETYEGSPVSKGILQYDMWNVTPTDLWDWKVLKEKIAKYGIRNSLLIAPMPTASTAQILGNNESIEPYTSNIYTRRVLSGEFQIVNPHLLKDLTERGLWHEEMKNQIIACNGSIQSIPEIPDDLKQLYKTVWEISQKTVLKMAAERGAFIDQSQSLNIHIAEPNYGKLTSMHFYGWKQGLKTGMYYLRTRPAANPIQFTLNKEKLKDKEKVSKEEEEKERNTAAMVCSLENRDECLMCGS
stoichiometry N [7]: 6 | stoichiometry N [8]: 2

B6: hRRM1 H2E (enzyme, human, UniProt P23921 1-792, looked up)
chain: MEVIKRDGRQERVMFDKITSRIQKLCYGLNMDFVDPAQITMKVIQGLYSGVTTVELDTLAAETAATLTTKHPDYAILAARIAVSNLHKETKKVFSDVMEDLYNYINPHNGKHSPMVAKSTLDIVLANKDRLNSAIIYDRDFSYNYFGFKTLERSYLLKINGKVAERPQHMLMRVSVGIHKEDIDAAIETYNLLSERWFTHASPTLFNAGTNRPQLSSCFLLSMKDDSIEGIYDTLKQCALISKSAGGIGVAVSCIRATGSYIAGTNGNSNGLVPMLRVYNNTARYVDQGGNKRPGAFAIYLEPWHLDIFEFLDLKKNTGKEEQRARDLFFALWIPDLFMKRVETNQDWSLMCPNECPGLDEVWGEEFEKLYASYEKQGRVRKVVKAQQLWYAIIESQTETGTPYMLYKDSCNRKSNQQNLGTIKCSNLCTEIVEYTSKDEVAVCNLASLALNMYVTSEHTYDFKKLAEVTKVVVRNLNKIIDINYYPVPEACLSNKRHRPIGIGVQGLADAFILMRYPFESAEAQLLNKQIFETIYYGALEASCDLAKEQGPYETYEGSPVSKGILQYDMWNVTPTDLWDWKVLKEKIAKYGIRNSLLIAPMPTASTAQILGNNESIEPYTSNIYTRRVLSGEFQIVNPHLLKDLTERGLWHEEMKNQIIACNGSIQSIPEIPDDLKQLYKTVWEISQKTVLKMAAERGAFIDQSQSLNIHIAEPNYGKLTSMHFYGWKQGLKTGMYYLRTRPAANPIQFTLNKEKLKDKEKVSKEEEEKERNTAAMVCSLENRDECLMCGS
stoichiometry N [4]: 2 and 6

B7: hRRM1 with the first 74 residues deleted (t-hRRM1) (domain or fragment, human, UniProt P23921 75-792, looked up)
chain: AILAARIAVSNLHKETKKVFSDVMEDLYNYINPHNGKHSPMVAKSTLDIVLANKDRLNSAIIYDRDFSYNYFGFKTLERSYLLKINGKVAERPQHMLMRVSVGIHKEDIDAAIETYNLLSERWFTHASPTLFNAGTNRPQLSSCFLLSMKDDSIEGIYDTLKQCALISKSAGGIGVAVSCIRATGSYIAGTNGNSNGLVPMLRVYNNTARYVDQGGNKRPGAFAIYLEPWHLDIFEFLDLKKNTGKEEQRARDLFFALWIPDLFMKRVETNQDWSLMCPNECPGLDEVWGEEFEKLYASYEKQGRVRKVVKAQQLWYAIIESQTETGTPYMLYKDSCNRKSNQQNLGTIKCSNLCTEIVEYTSKDEVAVCNLASLALNMYVTSEHTYDFKKLAEVTKVVVRNLNKIIDINYYPVPEACLSNKRHRPIGIGVQGLADAFILMRYPFESAEAQLLNKQIFETIYYGALEASCDLAKEQGPYETYEGSPVSKGILQYDMWNVTPTDLWDWKVLKEKIAKYGIRNSLLIAPMPTASTAQILGNNESIEPYTSNIYTRRVLSGEFQIVNPHLLKDLTERGLWHEEMKNQIIACNGSIQSIPEIPDDLKQLYKTVWEISQKTVLKMAAERGAFIDQSQSLNIHIAEPNYGKLTSMHFYGWKQGLKTGMYYLRTRPAANPIQFTLNKEKLKDKEKVSKEEEEKERNTAAMVCSLENRDECLMCGS
stoichiometry N [9]: 2
